Source: paper PMC9352680, “A comprehensive thermodynamic model for RNA binding by the Saccharomyces cerevisiae Pumilio protein PUF4”

T1: PUF4 RNA-binding domain (Saccharomyces cerevisiae, UniProt P25339 537-888)
T1 sequence: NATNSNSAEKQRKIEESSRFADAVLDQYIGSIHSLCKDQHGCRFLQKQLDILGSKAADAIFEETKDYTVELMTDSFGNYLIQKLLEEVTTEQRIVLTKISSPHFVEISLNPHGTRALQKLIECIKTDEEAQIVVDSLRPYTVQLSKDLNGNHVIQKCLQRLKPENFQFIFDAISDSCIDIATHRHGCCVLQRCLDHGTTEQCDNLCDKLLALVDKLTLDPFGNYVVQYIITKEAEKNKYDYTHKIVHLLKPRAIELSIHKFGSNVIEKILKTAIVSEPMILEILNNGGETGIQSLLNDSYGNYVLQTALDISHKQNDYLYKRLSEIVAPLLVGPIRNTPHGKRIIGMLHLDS


Target: T1, PUF4 RNA-binding domain
Experiment: Mg; RNA-MaP; 20 mM Na-HEPES pH 7.4, 30 mM KOAc, 0.75 mM MgCl2, 0.1% Tween-20, 5% glycerol, 0.1 mg/mL BSA, 2 mM DTT; 25 C; 0.0125-409.6 nM protein
Details: tags: N-His6-TEV cleaved; C-SNAP kept, Cy3B-labelled; label: tethered on chip by stalled RNA polymerase

Binder | Kd
ACAAACUAUAUAUUAUUAAUACAAAC (ssRNA) [Id_ii_S3_P5E.3_K5.2_C5.2_[C-2T]_[T-1A]_H5.2_A5.1_F5.1_T5.2_[T11A]_[A12T]] | 18.3 nM
ACAAACUAUAUAUUAUUAUUACAAAC (ssRNA) [Id_ii_S3_P5E.3_K5.2_C5.2_[C-2T]_[T-1A]_H5.2_A5.1_F5.1_T5.2_[A12T]] | 19.2 nM
ACAAACUUUAUAUUAUUAGCACAAAC (ssRNA) [Id_ii_S3_P5E.3_K5.2_C5.2_[C-2T]_H5.2_A5.1_F5.1_T5.2_[T11G]_[A12C]] | 82.9 nM
ACAAACUUUAUAUUAUUACGACAAAC (ssRNA) [Id_ii_S3_P5E.3_K5.2_C5.2_[C-2T]_H5.2_A5.1_F5.1_T5.2_[T11C]_[A12G]] | 381 nM
ACAAACUUUAUAUUAUUACCACAAAC (ssRNA) [Id_ii_S3_P5E.3_K5.2_C5.2_[C-2T]_H5.2_A5.1_F5.1_T5.2_[T11C]_[A12C]] | 268 nM
ACAAACAGUAUAUUAUUAGAACAAAC (ssRNA) [Id_ii_S3_P5E.3_K5.2_C5.2_[C-2A]_[T-1G]_H5.2_A5.1_F5.1_T5.2_[T11G]] | 35.5 nM
UCUCUUGGCAUUAUUAUCUCUU (ssRNA) [Ib_S1_P5E.1_K5.1_C5.1_H5.1_[T1G]_[T3C]_A5.1_F5.1_T5.1] | 1040 nM
ACAAACAGUAUAUUAUUAAGACAAAC (ssRNA) [Id_ii_S3_P5E.3_K5.2_C5.2_[C-2A]_[T-1G]_H5.2_A5.1_F5.1_T5.2_[T11A]_[A12G]] | 36.4 nM
ACAAACACUAUAUUAUUACGACAAAC (ssRNA) [Id_ii_S3_P5E.3_K5.2_C5.2_[C-2A]_[T-1C]_H5.2_A5.1_F5.1_T5.2_[T11C]_[A12G]] | 493 nM
ACAAACACUAUAUUAUUACAACAAAC (ssRNA) [Id_ii_S3_P5E.3_K5.2_C5.2_[C-2A]_[T-1C]_H5.2_A5.1_F5.1_T5.2_[T11C]] | 459 nM
ACAAACACUAUAUUAUUAAGACAAAC (ssRNA) [Id_ii_S3_P5E.3_K5.2_C5.2_[C-2A]_[T-1C]_H5.2_A5.1_F5.1_T5.2_[T11A]_[A12G]] | 626 nM
ACAAACACUAUAUUAUUAAAACAAAC (ssRNA) [Id_ii_S3_P5E.3_K5.2_C5.2_[C-2A]_[T-1C]_H5.2_A5.1_F5.1_T5.2_[T11A]] | 485 nM
ACAAACACUAUAUUAUUAUCACAAAC (ssRNA) [Id_ii_S3_P5E.3_K5.2_C5.2_[C-2A]_[T-1C]_H5.2_A5.1_F5.1_T5.2_[A12C]] | 370 nM
ACAAACAAUAUAUUAUUAGUACAAAC (ssRNA) [Id_ii_S3_P5E.3_K5.2_C5.2_[C-2A]_[T-1A]_H5.2_A5.1_F5.1_T5.2_[T11G]_[A12T]] | 118 nM
ACAAACAAUAUAUUAUUAACACAAAC (ssRNA) [Id_ii_S3_P5E.3_K5.2_C5.2_[C-2A]_[T-1A]_H5.2_A5.1_F5.1_T5.2_[T11A]_[A12C]] | 535 nM
ACAAACAAUAUAUUAUUAAUACAAAC (ssRNA) [Id_ii_S3_P5E.3_K5.2_C5.2_[C-2A]_[T-1A]_H5.2_A5.1_F5.1_T5.2_[T11A]_[A12T]] | 614 nM
ACAAACAAUAUAUUAUUAAAACAAAC (ssRNA) [Id_ii_S3_P5E.3_K5.2_C5.2_[C-2A]_[T-1A]_H5.2_A5.1_F5.1_T5.2_[T11A]] | 550 nM
UCUCUUUGUAAUAUUAUCUCUU (ssRNA) [Ia_S1_P5E.1_K5.1_C5.1_H5.1_A5.1_[T5A]_F5.1_T5.1] | 6.33 nM
UCUCUUCGAAUUAUUAUCUCUU (ssRNA) [Ib_S1_P5E.1_K5.1_C5.1_H5.1_[T1C]_[T3A]_A5.1_F5.1_T5.1] | > 2300 nM
ACAAACAAUAUAUUAUUAUCACAAAC (ssRNA) [Id_ii_S3_P5E.3_K5.2_C5.2_[C-2A]_[T-1A]_H5.2_A5.1_F5.1_T5.2_[A12C]] | 576 nM
ACAAACAUUAUAUUAUUAGGACAAAC (ssRNA) [Id_ii_S3_P5E.3_K5.2_C5.2_[C-2A]_H5.2_A5.1_F5.1_T5.2_[T11G]_[A12G]] | 94.3 nM
ACAAACAUUAUAUUAUUAGAACAAAC (ssRNA) [Id_ii_S3_P5E.3_K5.2_C5.2_[C-2A]_H5.2_A5.1_F5.1_T5.2_[T11G]] | 144 nM
ACAAACAUUAUAUUAUUACAACAAAC (ssRNA) [Id_ii_S3_P5E.3_K5.2_C5.2_[C-2A]_H5.2_A5.1_F5.1_T5.2_[T11C]] | 464 nM
ACAAACCGUAUAUUAUUAGAACAAAC (ssRNA) [Id_ii_S3_P5E.3_K5.2_C5.2_[T-1G]_H5.2_A5.1_F5.1_T5.2_[T11G]] | 15.8 nM

Binder | Kd
ACAAACCCUAUAUUAUUACCACAAAC (ssRNA) [Id_ii_S3_P5E.3_K5.2_C5.2_[T-1C]_H5.2_A5.1_F5.1_T5.2_[T11C]_[A12C]] | 448 nM
ACAAACCCUAUAUUAUUACUACAAAC (ssRNA) [Id_ii_S3_P5E.3_K5.2_C5.2_[T-1C]_H5.2_A5.1_F5.1_T5.2_[T11C]_[A12T]] | 400 nM
ACAAACCCUAUAUUAUUAACACAAAC (ssRNA) [Id_ii_S3_P5E.3_K5.2_C5.2_[T-1C]_H5.2_A5.1_F5.1_T5.2_[T11A]_[A12C]] | 452 nM
ACAAACCCUAUAUUAUUAAUACAAAC (ssRNA) [Id_ii_S3_P5E.3_K5.2_C5.2_[T-1C]_H5.2_A5.1_F5.1_T5.2_[T11A]_[A12T]] | 464 nM
ACAAACCCUAUAUUAUUAAAACAAAC (ssRNA) [Id_ii_S3_P5E.3_K5.2_C5.2_[T-1C]_H5.2_A5.1_F5.1_T5.2_[T11A]] | 673 nM
UCUCUUCGUGUUAUUAUCUCUU (ssRNA) [Ib_S1_P5E.1_K5.1_C5.1_H5.1_[T1C]_[A4G]_A5.1_F5.1_T5.1] | 2300 nM
ACAAACCAUAUAUUAUUACUACAAAC (ssRNA) [Id_ii_S3_P5E.3_K5.2_C5.2_[T-1A]_H5.2_A5.1_F5.1_T5.2_[T11C]_[A12T]] | 168 nM
ACAAACCAUAUAUUAUUACAACAAAC (ssRNA) [Id_ii_S3_P5E.3_K5.2_C5.2_[T-1A]_H5.2_A5.1_F5.1_T5.2_[T11C]] | 240 nM
ACAAACCAUAUAUUAUUAACACAAAC (ssRNA) [Id_ii_S3_P5E.3_K5.2_C5.2_[T-1A]_H5.2_A5.1_F5.1_T5.2_[T11A]_[A12C]] | 201 nM
ACAAACCAUAUAUUAUUAAUACAAAC (ssRNA) [Id_ii_S3_P5E.3_K5.2_C5.2_[T-1A]_H5.2_A5.1_F5.1_T5.2_[T11A]_[A12T]] | 157 nM
ACAAACCAUAUAUUAUUAAAACAAAC (ssRNA) [Id_ii_S3_P5E.3_K5.2_C5.2_[T-1A]_H5.2_A5.1_F5.1_T5.2_[T11A]] | 631 nM
ACAAACCUUAUAUUAUUAGCACAAAC (ssRNA) [Id_ii_S3_P5E.3_K5.2_C5.2_H5.2_A5.1_F5.1_T5.2_[T11G]_[A12C]] | 59.3 nM
ACAAACCUUAUAUUAUUAGAACAAAC (ssRNA) [Id_ii_S3_P5E.3_K5.2_C5.2_H5.2_A5.1_F5.1_T5.2_[T11G]] | 108 nM
ACAAACCUUAUAUUAUUACGACAAAC (ssRNA) [Id_ii_S3_P5E.3_K5.2_C5.2_H5.2_A5.1_F5.1_T5.2_[T11C]_[A12G]] | 406 nM
ACAAACCUUAUAUUAUUAAUACAAAC (ssRNA) [Id_ii_S3_P5E.3_K5.2_C5.2_H5.2_A5.1_F5.1_T5.2_[T11A]_[A12T]] | 459 nM
ACAAACCUUAUAUUAUUAUUACAAAC (ssRNA) [Id_ii_S3_P5E.3_K5.2_C5.2_H5.2_A5.1_F5.1_T5.2_[A12T]] | 208 nM
UCUCUUAGUGUUAUUAUCUCUU (ssRNA) [Ib_S1_P5E.1_K5.1_C5.1_H5.1_[T1A]_[A4G]_A5.1_F5.1_T5.1] | > 2300 nM
ACAAACGGACACUUAUUAGCACAAAC (ssRNA) [Id_ii_S3_P5E.4_K5.3_C5.2_[C-2G]_[T-1G]_H5.3_A5.1_F5.1_T5.2_[T11G]_[A12C]] | > 2300 nM
ACAAACGGACACUUAUUACAACAAAC (ssRNA) [Id_ii_S3_P5E.4_K5.3_C5.2_[C-2G]_[T-1G]_H5.3_A5.1_F5.1_T5.2_[T11C]] | > 2300 nM
ACAAACGGACACUUAUUAAGACAAAC (ssRNA) [Id_ii_S3_P5E.4_K5.3_C5.2_[C-2G]_[T-1G]_H5.3_A5.1_F5.1_T5.2_[T11A]_[A12G]] | > 2300 nM
ACAAACGCACACUUAUUAGAACAAAC (ssRNA) [Id_ii_S3_P5E.4_K5.3_C5.2_[C-2G]_[T-1C]_H5.3_A5.1_F5.1_T5.2_[T11G]] | > 2300 nM
ACAAACGCACACUUAUUAAGACAAAC (ssRNA) [Id_ii_S3_P5E.4_K5.3_C5.2_[C-2G]_[T-1C]_H5.3_A5.1_F5.1_T5.2_[T11A]_[A12G]] | > 2300 nM
ACAAACGCACACUUAUUAAAACAAAC (ssRNA) [Id_ii_S3_P5E.4_K5.3_C5.2_[C-2G]_[T-1C]_H5.3_A5.1_F5.1_T5.2_[T11A]] | > 2300 nM
ACAAACGCACACUUAUUAUGACAAAC (ssRNA) [Id_ii_S3_P5E.4_K5.3_C5.2_[C-2G]_[T-1C]_H5.3_A5.1_F5.1_T5.2_[A12G]] | > 2300 nM
